Reference: US7833513B2, “Treatment of Alzheimer's Disease” (Rhode Island Hospital, priority 2004, dated 2010)

Biological target: T1, IGF-II receptor (Homo sapiens, UniProt P11717)
T1 construct: membrane extracts of postmortem frontal lobe tissue as the sources of receptors; from tissue; host or cells: postmortem frontal lobe tissue, homogenates pooled per Braak stage group
Test: Saturation binding (Scatchard) of [125I]-IGF-II to postmortem frontal lobe membrane extracts by AD Braak stage
Design: unit not given here
Description: Protein concentration was determined using the bicinchoninic acid (BCA) assay (Pierce, Rockford, Ill.). Preliminary studies determined the amounts of protein and concentrations of radiolabeled ligand required to achieve 20% specific binding.
IGF-I binding assays required 25 μg protein per sample, and IGF-II receptor binding assays were performed with 10 μg protein. Equilibrium binding assays were used to assess growth factor binding levels in relation to AD stage severity. This was accomplished by determining net specific binding after incubating the protein samples at 4° C. overnight with a fixed amount of radioligand, in the presence or absence of excess cold ligand and then subtracting the values obtained for non-specific binding from those corresponding to the total binding. To measure total binding, individual protein samples were incubated in 100 μl reactions containing binding buffer (100 mM HEPES, pH 8.0, 118 mM NaCl, 1.2 mM MgSO4, 8.8 mM dextrose, 5 mM KCl, 1% bovine serum albumin) and 100 nCi/ml [^125I] […] To measure non-specific binding, replicate samples were prepared as indicated with the addition of 0.1 μM unlabeled (cold) ligand.
Saturation binding assays were performed to assess top-level (maximum) binding and binding affinity in relation to AD stage severity. Samples from 8-12 brains per Braak stage group were pooled in equal proportions and used to generate binding curves. Protein concentrations of the pooled homogenates were determined with the BCA assay. Duplicate samples were incubated in 100 μl reaction volumes containing binding buffer and 0.0031 to 1 μCi/ml of [^125I] […] To measure non-specific binding, duplicate reactions were incubated with the same concentrations of radiolabeled ligand plus 0.1 μM unlabeled (cold) competitive ligand. The data were graphed and analyzed using the GraphPad Prism 4 software to calculate the Bmax, kD (dissociation constant), and their standard deviations and 95% confidence intervals.
Reactions were performed in 1.5 ml Eppendorff tubes at 4° C. for 16 hours with gentle platform agitation. […] The samples were counted for 1 minute each in an LKB CompuGamma CS Gamma counter. Specific binding was calculated by subtracting CPM or fmol of non-specific binding, i.e., amount bound in the presence of cold ligand, from the total CPM or fmol bound (absence of unlabeled competitive ligand). After determining that the data fit a one-site rather than a two-site model, the results were analyzed using non-linear regression to calculate saturation binding (Bmax) and binding affinity (kD) with Scatchard analysis performed to measure saturation binding and binding affinity using GraphPad Prism 4 software (GraphPad Software, Inc., San Diego, Calif.).

T1 sequence (P11717 41-2491): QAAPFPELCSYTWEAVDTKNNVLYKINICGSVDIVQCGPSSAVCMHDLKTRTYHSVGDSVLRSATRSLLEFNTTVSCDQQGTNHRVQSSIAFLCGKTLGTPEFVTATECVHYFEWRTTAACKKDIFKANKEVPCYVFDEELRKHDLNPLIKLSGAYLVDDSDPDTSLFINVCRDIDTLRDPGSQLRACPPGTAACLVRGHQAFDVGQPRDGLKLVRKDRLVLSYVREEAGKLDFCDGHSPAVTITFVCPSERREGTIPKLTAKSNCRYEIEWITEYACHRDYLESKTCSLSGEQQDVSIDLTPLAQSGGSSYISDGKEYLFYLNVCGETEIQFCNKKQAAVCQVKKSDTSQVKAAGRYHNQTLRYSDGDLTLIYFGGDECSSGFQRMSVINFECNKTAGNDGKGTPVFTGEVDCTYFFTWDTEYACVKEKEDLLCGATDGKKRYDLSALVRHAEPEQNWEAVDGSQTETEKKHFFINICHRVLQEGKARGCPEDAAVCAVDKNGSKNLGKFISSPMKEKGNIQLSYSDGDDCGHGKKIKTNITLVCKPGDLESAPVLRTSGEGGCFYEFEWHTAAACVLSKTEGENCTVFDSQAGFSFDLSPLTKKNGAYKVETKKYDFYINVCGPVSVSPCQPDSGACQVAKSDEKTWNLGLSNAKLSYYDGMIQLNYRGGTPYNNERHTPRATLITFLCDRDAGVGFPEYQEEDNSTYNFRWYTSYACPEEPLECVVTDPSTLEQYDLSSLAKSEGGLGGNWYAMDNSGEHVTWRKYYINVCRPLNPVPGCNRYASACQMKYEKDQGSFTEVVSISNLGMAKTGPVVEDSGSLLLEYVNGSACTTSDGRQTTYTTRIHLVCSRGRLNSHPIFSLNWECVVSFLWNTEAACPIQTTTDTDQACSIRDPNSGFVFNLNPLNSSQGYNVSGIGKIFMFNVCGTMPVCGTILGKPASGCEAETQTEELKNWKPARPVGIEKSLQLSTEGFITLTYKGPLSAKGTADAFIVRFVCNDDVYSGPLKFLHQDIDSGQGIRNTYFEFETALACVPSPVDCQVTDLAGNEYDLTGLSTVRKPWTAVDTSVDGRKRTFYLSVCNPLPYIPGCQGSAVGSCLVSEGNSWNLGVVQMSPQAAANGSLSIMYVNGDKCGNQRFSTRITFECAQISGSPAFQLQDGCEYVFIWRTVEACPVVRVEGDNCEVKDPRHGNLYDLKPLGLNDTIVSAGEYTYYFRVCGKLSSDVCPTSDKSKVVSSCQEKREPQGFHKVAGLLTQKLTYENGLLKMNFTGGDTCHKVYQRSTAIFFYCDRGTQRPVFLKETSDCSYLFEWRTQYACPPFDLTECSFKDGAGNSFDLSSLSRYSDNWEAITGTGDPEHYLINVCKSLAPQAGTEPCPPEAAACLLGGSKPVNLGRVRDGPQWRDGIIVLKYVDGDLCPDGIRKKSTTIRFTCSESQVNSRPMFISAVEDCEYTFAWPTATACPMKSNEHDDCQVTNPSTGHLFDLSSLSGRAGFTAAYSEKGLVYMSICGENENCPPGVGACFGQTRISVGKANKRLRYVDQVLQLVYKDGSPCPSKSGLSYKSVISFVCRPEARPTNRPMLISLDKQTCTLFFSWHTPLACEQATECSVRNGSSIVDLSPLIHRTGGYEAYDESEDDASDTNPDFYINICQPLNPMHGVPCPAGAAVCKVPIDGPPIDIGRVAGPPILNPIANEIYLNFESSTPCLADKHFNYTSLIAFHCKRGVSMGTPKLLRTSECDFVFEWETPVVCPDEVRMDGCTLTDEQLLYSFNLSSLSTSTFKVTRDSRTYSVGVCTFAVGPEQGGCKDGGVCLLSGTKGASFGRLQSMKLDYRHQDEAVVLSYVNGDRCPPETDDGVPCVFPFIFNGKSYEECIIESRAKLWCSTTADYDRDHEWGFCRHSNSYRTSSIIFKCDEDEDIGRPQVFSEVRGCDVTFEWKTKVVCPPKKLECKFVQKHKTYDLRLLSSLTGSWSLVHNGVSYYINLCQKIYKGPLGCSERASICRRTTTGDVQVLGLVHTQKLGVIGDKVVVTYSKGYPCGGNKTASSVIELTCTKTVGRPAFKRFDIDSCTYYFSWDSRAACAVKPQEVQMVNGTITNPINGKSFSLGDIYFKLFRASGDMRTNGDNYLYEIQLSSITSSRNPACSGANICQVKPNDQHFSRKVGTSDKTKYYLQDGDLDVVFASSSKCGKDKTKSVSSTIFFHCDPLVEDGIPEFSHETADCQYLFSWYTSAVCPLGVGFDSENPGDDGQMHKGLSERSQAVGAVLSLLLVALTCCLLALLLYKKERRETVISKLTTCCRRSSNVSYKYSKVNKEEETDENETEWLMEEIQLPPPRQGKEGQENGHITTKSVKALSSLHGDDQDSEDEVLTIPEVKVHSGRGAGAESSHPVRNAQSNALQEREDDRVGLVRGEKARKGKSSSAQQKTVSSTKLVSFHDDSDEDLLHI

Substance: IGF-II: [125I]-labeled IGF-II used as tracer in brain membrane binding assays
- BMAX, IGF-II binding (Braak 0-1): 16.83
- BMAX, IGF-II binding (Braak 2-3): 12.53
- BMAX, IGF-II binding (Braak 4-5): 8.136
- BMAX, IGF-II binding (Braak 6): 4.713
